Holding throughout (experiment): peptide or protein array
For assay [1], the target named is LIM homology domain– and calponin homology domain–containing protein 1 peptide (18-mer) (human).
Assay [2] addresses Drebrin peptide (18-mer) (human).
The target of assay [3] is Leucine-rich repeat flightless-interacting protein 2 peptide (18-mer) (human).
The target in assay [4] is Myosin-14 peptide (18-mer) (human).
Assay [5] deals with LIM domain only protein 7 peptide (18-mer) (human).
The target of assay [6] is FH1/FH2 domain–containing protein 3 peptide (18-mer) (human).

Data on one substance can be found in PMC3553496.

Take “GST-tagged ARHGAP10L SH3 domain (domain or fragment)”: the relative binding strength (% of the strongest interaction of this SH3 domain) was 11% in assay [1]; 68% in assay [2]; 65% in assay [3]; 100% in assay [4]; 12% in assay [5]; 53% in assay [6].
